This is an account of results in US6713265 (SYNAPTIC PHARMACEUTICAL, dated 2004).

First the molecules themselves.
T1: human Y5 receptor (human, UniProt Q15761 1-445)
T1 construct: also called CG-19; hY5
T1 sequence: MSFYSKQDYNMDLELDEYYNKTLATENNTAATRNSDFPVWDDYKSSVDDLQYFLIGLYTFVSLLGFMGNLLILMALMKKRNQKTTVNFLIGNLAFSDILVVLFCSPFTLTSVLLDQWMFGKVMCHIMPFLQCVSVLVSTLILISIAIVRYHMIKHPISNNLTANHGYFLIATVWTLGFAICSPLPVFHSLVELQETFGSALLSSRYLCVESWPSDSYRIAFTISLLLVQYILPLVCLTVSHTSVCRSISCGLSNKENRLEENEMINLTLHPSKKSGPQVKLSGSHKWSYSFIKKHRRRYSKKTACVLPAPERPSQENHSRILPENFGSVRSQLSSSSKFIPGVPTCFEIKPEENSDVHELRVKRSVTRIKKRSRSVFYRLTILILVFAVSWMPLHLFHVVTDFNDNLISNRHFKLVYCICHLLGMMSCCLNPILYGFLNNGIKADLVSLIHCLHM

T2: canine Y5 receptor (canine, UniProt O62729 1-446)
T2 construct: Transiently expressed in COS-7 cells; also called canine (beagle) Y5; BO11
T2 sequence: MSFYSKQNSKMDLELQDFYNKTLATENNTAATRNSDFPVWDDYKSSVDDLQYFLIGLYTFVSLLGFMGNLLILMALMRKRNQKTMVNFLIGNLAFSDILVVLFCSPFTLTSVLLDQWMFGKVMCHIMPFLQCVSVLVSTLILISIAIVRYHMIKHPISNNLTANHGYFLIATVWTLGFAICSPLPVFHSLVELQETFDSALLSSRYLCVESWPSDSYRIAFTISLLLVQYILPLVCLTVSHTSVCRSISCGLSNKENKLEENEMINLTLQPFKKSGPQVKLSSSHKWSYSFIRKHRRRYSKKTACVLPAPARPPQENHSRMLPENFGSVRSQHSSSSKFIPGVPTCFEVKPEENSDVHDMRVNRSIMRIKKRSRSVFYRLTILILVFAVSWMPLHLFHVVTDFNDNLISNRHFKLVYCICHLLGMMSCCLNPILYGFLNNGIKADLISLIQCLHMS

T3: rat Y1 receptor (rat, UniProt P21555 1-382)
T3 construct: whole, on cells; also called rY1
T3 sequence (looked up): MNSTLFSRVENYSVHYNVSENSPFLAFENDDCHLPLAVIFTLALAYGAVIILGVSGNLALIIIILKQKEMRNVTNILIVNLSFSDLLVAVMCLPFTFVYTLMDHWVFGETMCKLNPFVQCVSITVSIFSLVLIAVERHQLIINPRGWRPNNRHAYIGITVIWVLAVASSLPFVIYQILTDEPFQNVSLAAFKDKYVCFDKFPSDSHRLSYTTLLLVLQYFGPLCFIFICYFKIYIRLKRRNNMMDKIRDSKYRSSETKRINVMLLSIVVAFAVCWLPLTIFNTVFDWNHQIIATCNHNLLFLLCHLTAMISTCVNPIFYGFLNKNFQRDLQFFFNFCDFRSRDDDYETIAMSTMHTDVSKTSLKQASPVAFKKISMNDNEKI

T4: rat hypothalamic Y5 receptor (rat, UniProt Q63634 1-445)
T4 construct: Expressed transiently in COS-7 or stably in 293 cells; also called rat Y5; CG-18
T4 sequence: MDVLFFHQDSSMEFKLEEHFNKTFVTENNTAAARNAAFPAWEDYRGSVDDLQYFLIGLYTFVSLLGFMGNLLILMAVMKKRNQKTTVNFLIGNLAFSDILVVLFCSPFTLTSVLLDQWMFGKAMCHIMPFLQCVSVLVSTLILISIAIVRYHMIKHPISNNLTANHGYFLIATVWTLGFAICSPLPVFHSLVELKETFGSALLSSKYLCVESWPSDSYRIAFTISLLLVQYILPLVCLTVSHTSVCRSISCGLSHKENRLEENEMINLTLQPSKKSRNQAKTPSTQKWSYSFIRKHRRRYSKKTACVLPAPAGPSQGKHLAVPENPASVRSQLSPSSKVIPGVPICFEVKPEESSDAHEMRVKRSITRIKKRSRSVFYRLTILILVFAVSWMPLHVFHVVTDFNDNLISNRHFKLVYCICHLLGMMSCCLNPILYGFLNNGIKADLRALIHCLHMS

T5: rat Y2 receptor (rat, UniProt Q9ERC0 1-381)
T5 construct: whole, on cells; also called rY2
T5 sequence: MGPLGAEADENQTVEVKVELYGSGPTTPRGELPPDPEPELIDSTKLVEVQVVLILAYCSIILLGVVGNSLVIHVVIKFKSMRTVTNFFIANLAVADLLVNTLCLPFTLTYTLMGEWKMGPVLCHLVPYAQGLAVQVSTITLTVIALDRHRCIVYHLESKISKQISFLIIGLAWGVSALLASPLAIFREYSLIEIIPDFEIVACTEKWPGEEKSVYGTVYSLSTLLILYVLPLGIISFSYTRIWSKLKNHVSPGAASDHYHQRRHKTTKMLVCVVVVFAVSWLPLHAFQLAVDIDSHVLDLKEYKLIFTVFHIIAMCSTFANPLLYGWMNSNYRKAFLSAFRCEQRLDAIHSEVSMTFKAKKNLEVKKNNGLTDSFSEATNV

T6: human Y1 receptor (human, UniProt P25929 1-384)
T6 construct: whole, on cells; stably transfected 293 cells for function
T6 sequence (looked up): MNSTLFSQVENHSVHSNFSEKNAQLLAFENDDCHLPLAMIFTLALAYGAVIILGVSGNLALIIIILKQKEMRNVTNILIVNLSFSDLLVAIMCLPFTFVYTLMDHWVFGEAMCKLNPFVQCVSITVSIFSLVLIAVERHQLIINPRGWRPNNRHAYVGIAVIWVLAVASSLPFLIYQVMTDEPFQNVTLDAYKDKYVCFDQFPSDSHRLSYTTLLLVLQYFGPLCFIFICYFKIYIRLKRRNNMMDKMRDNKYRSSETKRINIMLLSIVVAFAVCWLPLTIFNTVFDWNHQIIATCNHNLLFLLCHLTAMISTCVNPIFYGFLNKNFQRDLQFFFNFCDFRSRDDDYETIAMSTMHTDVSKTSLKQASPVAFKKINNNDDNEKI

B1: bovine PP (peptide, UniProt P01302 30-65, looked up)
peptide: APLEPEYPGDNATPEQMAQYAAELRRYINMLTRPRY
notes: mature; also called PP, bovine
B2: human PP2-36 (peptide, UniProt P01298 31-65, looked up)
peptide: PLEPVYPGDNATPEQMAQYAADLRRYINMLTRPRY
notes: range 2-36; Range counted on the mature peptide
B3: human [Ile^31, Gln^34]PP (peptide, UniProt P01298 30-65, looked up)
peptide: B1 peptide with E6V, E23D, L31I, P34Q
modifications: ends and bridges not checked
notes: mature
B4: human PP (peptide, UniProt P01298 30-65, looked up)
peptide: B1 peptide with E6V, E23D
notes: mature; also called PP, human; human pancreatic polypeptide
B5: rat PP (peptide, UniProt P06303 30-65, looked up)
peptide: APLEPMYPGDYATHEQRAQYETQLRRYINTLTRPRY
notes: mature; also called PP, rat
B6: porcine NPY13-36 (peptide, UniProt P01304 22-45, looked up)
peptide: PAEDLARYYSALRHYINLITRQRY
modifications: ends and bridges not checked
notes: range 13-36; Range counted on the mature peptide; also called NPY13-36, porcine

Where a chain is given by its changes, count along the chain named. Ends that are not written are not given here.

The target in one test is T1, human Y5 receptor. Kind of test: 125I-PYY displacement, LM(tk-) membranes.
B1: affinity was put at a Ki of 7.9 nM.

For the next test, the target named is T1, human Y5 receptor. Kind of test: cell-based or functional assay.
As to B2, the “EC50, inhibition of forskolin-stimulated cAMP accumulation, LM(tk-) cells” value worked out at 2 nM.
On to B3, for which the “EC50, inhibition of forskolin-stimulated cAMP accumulation, LM(tk-) cells” value turned out to be 5.6 nM.

A further test concerns the target T2, canine Y5 receptor. In words: 125I-PYY displacement, COS-7 membranes.
In the case of B4, the Ki is less than 10 nM.

Another test deals with T7, rat Y4 receptor (rat, UniProt Q63447 1-375).
T7 construct: whole, on cells; also called rY4
T7 sequence (Q63447 whole entry): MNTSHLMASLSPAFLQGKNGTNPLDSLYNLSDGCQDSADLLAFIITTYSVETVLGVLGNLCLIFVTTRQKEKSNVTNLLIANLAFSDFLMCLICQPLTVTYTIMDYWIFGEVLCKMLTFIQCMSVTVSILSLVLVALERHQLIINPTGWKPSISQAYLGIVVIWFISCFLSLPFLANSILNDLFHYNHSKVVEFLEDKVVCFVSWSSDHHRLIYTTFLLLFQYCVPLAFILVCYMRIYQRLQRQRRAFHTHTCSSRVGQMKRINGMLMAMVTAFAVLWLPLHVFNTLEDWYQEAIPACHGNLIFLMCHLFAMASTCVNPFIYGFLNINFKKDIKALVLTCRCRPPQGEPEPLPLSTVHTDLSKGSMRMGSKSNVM
In words: 125I-PYY displacement, COS-7 membranes.
In turn, B5 registered a Ki of less than 0.2 nM.
For the molecule B4, the Ki is less than 0.2 nM.

In the next test the target is T2, canine Y5 receptor. Kind of test: 125I-PYY displacement, COS-7 membranes. This is another data set of the same source.
B5: the affinity, expressed as Ki, was 160 nM.
Same read-out and setting: the result for B6 reads 120 nM; that for B4, 6.3 nM; that for B1, 10 nM.

The next test deals with T1, human Y5 receptor. In words: 125I-PYY3-36 displacement, LM(tk-) membranes.
B5 returned a Ki of 130 nM.
B1: the Ki was 5 nM.

Another test addresses T3, rat Y1 receptor. Kind of test: 125I-PYY displacement, COS-7 membranes.
Molecule B6 displayed a Ki of 190 nM.
The same measure, in the same setting: to B1 belongs 120 nM.

In another test the target is T7, rat Y4 receptor. Kind of test: 125I-PYY displacement, COS-7 membranes. The source holds these as a separate data set.
For the molecule B4, the Ki is 0.04 nM.

Another test addresses T4, rat hypothalamic Y5 receptor. Kind of test: 125I-PYY displacement, COS-7 membranes.
Regarding B5, the affinity, expressed as Ki, was 230 nM.
The same measure, in the same setting: the result for B4 reads 5 nM; that for B1, 8.4 nM.

For a further test, the target named is T5, rat Y2 receptor. Kind of test: 125I-PYY displacement, COS-7 membranes.
As to B6, the Ki was found to be 31 nM.

Another test has as its target T6, human Y1 receptor. In words: 125I-PYY displacement, COS-7 membranes.
For the molecule B5, the affinity corresponds to a Ki of 450 nM.

The next test deals with T8, human Y4 receptor (human, UniProt P50391 1-375).
T8 construct: whole, on cells
T8 sequence (P50391 whole entry): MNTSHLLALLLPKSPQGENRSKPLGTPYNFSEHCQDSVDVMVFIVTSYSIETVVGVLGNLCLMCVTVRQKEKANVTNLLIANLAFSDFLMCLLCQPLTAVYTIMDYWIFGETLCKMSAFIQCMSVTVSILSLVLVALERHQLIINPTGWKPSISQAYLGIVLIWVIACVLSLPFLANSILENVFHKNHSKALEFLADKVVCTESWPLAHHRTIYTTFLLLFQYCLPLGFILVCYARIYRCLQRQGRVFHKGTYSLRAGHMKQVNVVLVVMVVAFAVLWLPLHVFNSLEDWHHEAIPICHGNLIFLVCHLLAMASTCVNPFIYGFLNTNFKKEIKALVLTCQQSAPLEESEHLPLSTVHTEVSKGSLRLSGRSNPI
In words: 125I-PYY displacement, COS-7 membranes.
With B5, the affinity, expressed as Ki, was 0.16 nM.

A further test concerns the target T4, rat hypothalamic Y5 receptor. Kind of test: 125I-PYY displacement, COS-7 membranes. The source holds these as a separate data set.
On to B5, for which the Ki is 180 nM.
In turn, B4 came in with a Ki of 5 nM.

A further test deals with T1, human Y5 receptor. In words: 125I-PYY displacement, COS-7 membranes.
B2 gave a Ki of 2.1 nM.
With B5, the inhibition constant Ki was 630 nM.
B1 registered a Ki of 1.6 nM.
Molecule B3 displayed a Ki of 2 nM.

For the next test, the target named is T4, rat hypothalamic Y5 receptor. In words: 125I-PYY displacement, COS-7 membranes. The source holds these as a separate data set.
As to B5, the affinity corresponds to a Ki of 230 nM.
The same measure, in the same setting: the result for B4 reads 5 nM; that for B1, 8.4 nM.

For another test the target is unchanged. In words: cell-based or functional assay.
Regarding B5, the “EC50, inhibition of forskolin-stimulated cAMP accumulation, 293 cells” value came to 130 nM.
The same measure, in the same setting: the result for B1 reads 5.7 nM.

The target in another test is T1, human Y5 receptor. In words: 125I-PYY displacement, COS-7 membranes. This is another data set of the same source.
The molecule B2 returned a Ki of 2.1 nM.
B5: the Ki turned out to be 630 nM.

The target in the next test is T6, human Y1 receptor. In words: 125I-PYY displacement, COS-7 membranes. The source holds these as a separate data set.
B5 showed an inhibition constant Ki of 450 nM.

A further test has as its target T8, human Y4 receptor. In words: 125I-PYY displacement, COS-7 membranes. This is another data set of the same source.
Turning to B5, the affinity, expressed as Ki, was 0.16 nM.
